Paper PMC2396416

Experiments:
TFBb = target: T1, TFBb (Halobacterium sp. NRC-1, UniProt Q9HRE6 1-325); test: EMSA
T1 sequence: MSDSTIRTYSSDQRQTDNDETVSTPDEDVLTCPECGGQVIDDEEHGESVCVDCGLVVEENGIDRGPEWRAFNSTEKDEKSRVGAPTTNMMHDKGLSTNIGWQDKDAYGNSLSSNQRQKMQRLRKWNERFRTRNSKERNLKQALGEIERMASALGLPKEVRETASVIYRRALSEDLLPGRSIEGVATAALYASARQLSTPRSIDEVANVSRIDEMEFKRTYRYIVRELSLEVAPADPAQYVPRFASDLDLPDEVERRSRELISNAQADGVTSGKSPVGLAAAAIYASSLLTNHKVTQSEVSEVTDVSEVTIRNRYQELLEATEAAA

TFBg = target: T2, TFBg (Halobacterium sp. NRC-1, UniProt Q9HSF7 1-323); test: EMSA
T2 sequence: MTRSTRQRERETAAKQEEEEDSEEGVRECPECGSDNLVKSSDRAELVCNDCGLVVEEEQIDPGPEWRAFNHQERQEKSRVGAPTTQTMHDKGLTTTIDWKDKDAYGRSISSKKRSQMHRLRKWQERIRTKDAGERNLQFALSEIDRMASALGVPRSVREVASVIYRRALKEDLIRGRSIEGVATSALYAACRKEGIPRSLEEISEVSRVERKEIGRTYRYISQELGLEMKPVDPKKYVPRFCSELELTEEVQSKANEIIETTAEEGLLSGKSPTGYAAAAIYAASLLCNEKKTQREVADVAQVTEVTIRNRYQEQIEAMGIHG

B1: FM (BRE/TATA of Phsp5 replaced by Pbop) (dsDNA)
DNA 1: GCGGGATCCTCGTAGAGTTACACGAAATGCGGACATAGTTTTGGCTGGAGTCAAGGCATATGAGT
DNA 2: ACTCATATGCCTTGACTCCAGCCAAAACTATGTCCGCATTTCGTGTAACTCTACGAGGATCCCGC
Question: Does B1 bind (TFBb)?
Answer: no binding

Question: Does B1 bind (TFBg)?
Answer: no binding
